T1: human ferroportin 1 (human, UniProt Q9NP59 1-571)
T1 construct: also called human FPN1; FPN1
T1 sequence: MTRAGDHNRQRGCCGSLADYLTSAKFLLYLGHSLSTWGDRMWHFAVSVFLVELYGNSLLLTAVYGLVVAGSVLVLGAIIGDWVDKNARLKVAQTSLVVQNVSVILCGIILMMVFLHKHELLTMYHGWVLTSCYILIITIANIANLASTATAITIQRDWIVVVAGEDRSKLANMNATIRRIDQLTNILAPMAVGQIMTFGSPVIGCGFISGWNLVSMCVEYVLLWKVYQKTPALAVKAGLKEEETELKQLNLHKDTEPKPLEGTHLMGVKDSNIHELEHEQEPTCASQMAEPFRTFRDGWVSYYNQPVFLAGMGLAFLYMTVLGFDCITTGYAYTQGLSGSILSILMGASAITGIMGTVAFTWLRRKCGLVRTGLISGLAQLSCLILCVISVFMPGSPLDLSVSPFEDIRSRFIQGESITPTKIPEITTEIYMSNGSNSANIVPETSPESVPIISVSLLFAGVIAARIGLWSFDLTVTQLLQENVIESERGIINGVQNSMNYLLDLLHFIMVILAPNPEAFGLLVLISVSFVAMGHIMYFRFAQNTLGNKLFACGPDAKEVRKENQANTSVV

T2: rat ferroportin (rat, UniProt Q923U9 1-570, limits assumed)
T2 sequence (looked up): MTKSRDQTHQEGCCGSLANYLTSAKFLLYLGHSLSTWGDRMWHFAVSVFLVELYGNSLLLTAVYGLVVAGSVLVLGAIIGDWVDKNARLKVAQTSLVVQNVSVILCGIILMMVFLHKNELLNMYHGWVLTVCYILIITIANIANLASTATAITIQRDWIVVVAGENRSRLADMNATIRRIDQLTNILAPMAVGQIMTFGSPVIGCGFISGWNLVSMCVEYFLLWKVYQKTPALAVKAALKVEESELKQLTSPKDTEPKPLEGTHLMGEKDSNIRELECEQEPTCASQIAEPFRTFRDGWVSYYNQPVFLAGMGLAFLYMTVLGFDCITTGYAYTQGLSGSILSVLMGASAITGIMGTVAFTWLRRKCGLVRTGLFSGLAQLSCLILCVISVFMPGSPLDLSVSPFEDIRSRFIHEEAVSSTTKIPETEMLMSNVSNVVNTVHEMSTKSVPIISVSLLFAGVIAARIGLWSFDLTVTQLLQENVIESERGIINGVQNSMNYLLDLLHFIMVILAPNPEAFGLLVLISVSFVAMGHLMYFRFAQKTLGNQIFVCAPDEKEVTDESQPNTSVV

T3: human FPN1 C-terminally fused with GFP (human, UniProt Q9NP59 1-571, GFP reporter fused to the C-terminus ("FPN1 is C-terminally fused with GFP"). It is left out because the patent gives no letters for it.)
T3 sequence: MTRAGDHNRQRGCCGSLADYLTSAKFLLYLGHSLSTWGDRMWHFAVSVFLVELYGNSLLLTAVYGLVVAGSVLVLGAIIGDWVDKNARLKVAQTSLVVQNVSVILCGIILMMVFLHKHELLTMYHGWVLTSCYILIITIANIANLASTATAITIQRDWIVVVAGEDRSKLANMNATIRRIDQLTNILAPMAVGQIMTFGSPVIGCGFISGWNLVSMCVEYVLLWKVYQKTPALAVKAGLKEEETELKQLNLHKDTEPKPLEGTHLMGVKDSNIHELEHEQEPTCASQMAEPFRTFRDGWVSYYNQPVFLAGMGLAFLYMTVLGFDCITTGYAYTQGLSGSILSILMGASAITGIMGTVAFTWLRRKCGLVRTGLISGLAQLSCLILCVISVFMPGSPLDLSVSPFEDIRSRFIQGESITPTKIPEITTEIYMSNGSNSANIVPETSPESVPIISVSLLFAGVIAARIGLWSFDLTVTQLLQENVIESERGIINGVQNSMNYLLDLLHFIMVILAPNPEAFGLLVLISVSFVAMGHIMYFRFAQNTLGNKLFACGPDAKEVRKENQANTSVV


Experiments:
[1] = molecular target: T1, human ferroportin 1; experiment: inhibition of binding of 30 nM biotinylated hepcidin to FPN/293 cells, ELISA of lysate; antibody at 7.8 nM; mean
[2] = molecular target: T1, human ferroportin 1; experiment: cell-based or functional assay
[3] = molecular target: T1, human ferroportin 1; experiment: inhibition of binding of 30 nM biotinylated hepcidin to FPN/293 cells, ELISA of lysate; antibody at 500 nM; mean
[4] = molecular target: T1, human ferroportin 1; experiment: inhibition of binding of 30 nM biotinylated hepcidin to FPN/293 cells, ELISA of lysate; antibody at 31.25 nM; mean
[5] = molecular target: T1, human ferroportin 1; experiment: inhibition of binding of 30 nM biotinylated hepcidin to FPN/293 cells, ELISA of lysate; antibody at 125 nM; mean
[6] = molecular target: T2, rat ferroportin; experiment: not described; told in the pharmacokinetics example
[7] = molecular target: T3, human FPN1 C-terminally fused with GFP; experiment: cell-based or functional assay
[8] = molecular target: T1, human ferroportin 1; experiment: inhibition of binding of 30 nM biotinylated hepcidin to FPN/293 cells, ELISA of lysate; antibody at 2000 nM; mean

| % Inhibition [1] | EC50 of inhibition of mature hepcidin induced increase in cellular ferritin, Caco-2 cells [2] | Percentage inhibition of mature hepcidin induced increase in cellular ferritin, Caco-2 cells, Mab at 2.22E-7 M [2] | Percentage inhibition of mature hepcidin induced increase in cellular ferritin, Caco-2 cells, Mab at 2.47E-8 M [2] | Percentage inhibition of mature hepcidin induced increase in cellular ferritin, Caco-2 cells, Mab at 2.7E-9 M [2] | Percentage inhibition of mature hepcidin induced increase in cellular ferritin, Caco-2 cells, Mab at 3.0E-10 M [2] | Percentage inhibition of mature hepcidin induced increase in cellular ferritin, Caco-2 cells, Mab at 6.67E-7 M [2] | Percentage inhibition of mature hepcidin induced increase in cellular ferritin, Caco-2 cells, Mab at 7.4E-8 M [2] | Percentage inhibition of mature hepcidin induced increase in cellular ferritin, Caco-2 cells, Mab at 8.0E-9 M [2] | Percentage inhibition of mature hepcidin induced increase in cellular ferritin, Caco-2 cells, Mab at 9.0E-10 M [2] | % Inhibition [3] | % Inhibition [4] | % Inhibition [5] | binding result [6] | Absolute IC50 of inhibition of hepcidin-25-induced internalization and degradation of FPN1-GFP [7] | Relative IC50 of inhibition of hepcidin-25-induced internalization and degradation of FPN1-GFP [7] | Top % Inhibition of hepcidin-25-induced internalization and degradation of FPN1-GFP [7] | % Inhibition [8] | Binder |
| --- | --- | --- | --- | --- | --- | --- | --- | --- | --- | --- | --- | --- | --- | --- | --- | --- | --- | --- |
| 5.4% | 37 nM | 59.6% | 36.2% | 24.9% | 12% | 61.9% | 45.6% | 28% | 19.5% | 84.9% | 13.4% | 59.3% | no binding | 5.7 nM | 4.7 nM | 85.9% | 95.3% | Mab 4A10-3 (antibody, human IgG4 S228P, kappa, F234A L235A, V domains shown) VH: QVQLVQSGAEVKKPGSSVKVSCKASGYAFTSFLIEWVRQAPGQGLEWMGTSNPRTGGRKYKEKFRGRVTITADKSTSTAYMELSSLRSEDTAVYYCAREFFDYWGQGTTVTVSS VL: DIQMTQSPSSLSASVGDRVTITCRASKSISKYTAWYQQKPGKAPKLLIYAGSKLHWGVPSRFSGSGSGTDFTLTISSLQPEDFATYYCQQHNEYPYTFGGGTKVEIKR |
| 18.7% | 28 nM | 69.3% | 45.3% | 34.8% | 14.2% | 75.2% | 61.1% | 31.6% | 23.3% | 81.6% | 32.1% | 88.4% | no binding | 3.8 nM | 3.7 nM | 92.6% | 79.9% | Mab Combi11 (antibody, human IgG4 S228P, kappa, F234A L235A, V domains shown) VH: QVQLVQSGAEVKKPGSSVKVSCKASGYAFTSFLIEWVRQAPGQGLEWMGTSNPRTGRTKYKSKFRGRVTITADKSTSTAYMELSSLRSEDTAVYYCAREFFDYWGQGTTVTVSS VL: DIQMTQSPSSLSASVGDRVTITCRASKSISKYTAWYQQKPGKAPKLLIYAGSKRHWGVPSRFSGSGSGTDFTLTISSLQPEDFATYYCQQHNEYPYTFGGGTKVEIKR |

From US20130122013A1 (Eli Lilly, published 2013)
